For series [1], the target named is Cdc13 OB1 domain (Strep-TEV-Strep-OB1, residues 1-176) (C. glabrata). Kind of series: AUC.
For series [2], the target named is Cdc13 OB1 domain without its C-terminal tail (OB1 ΔC-ter) (C. glabrata). Kind of series: AUC.
Series [3] deals with Cdc13 OB2 domain (Strep-TEV-Strep-OB2, residues 260-396) (C. glabrata). The series is described as follows: SEC.
Series [4] has as its target Cdc13_(OB23) (H10-TEV-Cdc13_(OB23)) (C. glabrata). Kind of series: mass photometry.
The target is the same in series [5]. The series is described as follows: SEC.
The target is the same in series [6]. The series is described as follows: AUC.
Series [7] deals with Cdc13_(OB24) (H10-TEV-Cdc13_(OB24)) (C. glabrata). The series is described as follows: mass photometry.
For series [8] the target is unchanged. Kind of series: SEC.
Series [9] has the same target. The series is described as follows: AUC.
Series [10] addresses Cdc13_(OB234), purified, large tag removed (C. glabrata). The series is described as follows: AUC.
For series [11], the target named is OB1 ΔC-ter A40W (C. glabrata). The series is described as follows: AUC.
The target of series [12] is OB1 ΔC-ter A40W D94A (C. glabrata). Kind of series: AUC.
Series [13] addresses OB1 ΔC-ter Q39A (C. glabrata). Kind of series: AUC.
Series [14] addresses OB1 ΔC-ter Q39A A40W (C. glabrata). Kind of series: AUC.
The target in a further series is T1, OB3 (Candida glabrata, UniProt Q6FT40 401-593).
T1 sequence: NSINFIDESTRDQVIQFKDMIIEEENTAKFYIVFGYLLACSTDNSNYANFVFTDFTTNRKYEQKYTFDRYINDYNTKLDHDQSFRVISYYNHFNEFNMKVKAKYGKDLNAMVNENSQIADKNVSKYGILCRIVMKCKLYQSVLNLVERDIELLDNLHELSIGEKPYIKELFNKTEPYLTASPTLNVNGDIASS
The series is described as follows: EMSA.

Another series addresses T2, Cdc13OB34 (Candida glabrata, UniProt Q6FT40 401-753).
T2 sequence: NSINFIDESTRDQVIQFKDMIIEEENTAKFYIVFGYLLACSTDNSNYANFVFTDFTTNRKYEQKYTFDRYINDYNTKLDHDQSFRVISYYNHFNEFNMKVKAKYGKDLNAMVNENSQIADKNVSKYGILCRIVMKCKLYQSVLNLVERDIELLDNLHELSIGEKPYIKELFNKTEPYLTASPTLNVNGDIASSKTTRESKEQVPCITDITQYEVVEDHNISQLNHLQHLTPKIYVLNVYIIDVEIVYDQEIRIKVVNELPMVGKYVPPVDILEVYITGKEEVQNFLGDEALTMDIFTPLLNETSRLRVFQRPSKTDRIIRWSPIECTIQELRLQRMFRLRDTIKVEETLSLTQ
Kind of series: fluorescence polarization.

The next series addresses T3, Cdc13OB23 (Candida glabrata, UniProt Q6FT40 260-593).
T3 sequence: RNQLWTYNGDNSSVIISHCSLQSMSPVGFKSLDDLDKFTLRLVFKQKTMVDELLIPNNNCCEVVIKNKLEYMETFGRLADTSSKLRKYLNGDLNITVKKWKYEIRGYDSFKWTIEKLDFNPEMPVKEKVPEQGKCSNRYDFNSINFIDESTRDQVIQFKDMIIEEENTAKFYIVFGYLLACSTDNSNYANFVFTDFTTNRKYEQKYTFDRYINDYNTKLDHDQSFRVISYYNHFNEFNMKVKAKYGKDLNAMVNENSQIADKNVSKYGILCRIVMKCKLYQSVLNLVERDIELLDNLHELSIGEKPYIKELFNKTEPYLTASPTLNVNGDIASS
The series is described as follows: fluorescence polarization.

The next series concerns the target T4, Cdc13OB234 (Candida glabrata, UniProt Q6FT40 260-753).
T4 sequence: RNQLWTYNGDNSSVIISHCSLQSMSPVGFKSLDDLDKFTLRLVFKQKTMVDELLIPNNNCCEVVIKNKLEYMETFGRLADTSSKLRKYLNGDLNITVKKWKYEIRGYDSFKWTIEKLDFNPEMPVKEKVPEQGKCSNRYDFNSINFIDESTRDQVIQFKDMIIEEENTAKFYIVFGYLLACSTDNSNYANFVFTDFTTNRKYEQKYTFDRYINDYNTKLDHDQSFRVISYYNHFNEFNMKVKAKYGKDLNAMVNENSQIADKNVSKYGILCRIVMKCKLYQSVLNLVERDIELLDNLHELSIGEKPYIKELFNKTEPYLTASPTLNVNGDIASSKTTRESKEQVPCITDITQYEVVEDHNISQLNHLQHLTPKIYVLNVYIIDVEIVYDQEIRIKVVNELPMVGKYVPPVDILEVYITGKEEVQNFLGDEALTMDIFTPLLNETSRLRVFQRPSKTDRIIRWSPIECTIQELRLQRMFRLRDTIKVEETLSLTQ
Kind of series: fluorescence polarization.

Turning to “Cdc13 OB1 domain (Strep-TEV-Strep-OB1, residues 1-176) (domain or fragment)”, in series [1], the relative abundance of species 1 (monomer) stood at 72%, the relative abundance of species 2 came out at 4%, the relative abundance of species 3 is 3% and the relative abundance of species 4 is 4.5%. This molecule also came in with a relative abundance of species 5 in [1] of 2%.
In series [2], “Cdc13 OB1 domain without its C-terminal tail (OB1 ΔC-ter) (domain or fragment)” gave a relative abundance of species 1 of 95%, a relative abundance of species 2 of 4% and a relative abundance of species 3 of 1%.
In turn, “Cdc13 OB2 domain (Strep-TEV-Strep-OB2, residues 260-396) (domain or fragment)” came in with a stoichiometry N in series [3] of 2.
Consider “Cdc13_(OB23) (H10-TEV-Cdc13_(OB23)) (domain or fragment)”, for which the stoichiometry N in series [4], in series [5] and in series [6] was 2 each time.
With “Cdc13_(OB24) (H10-TEV-Cdc13_(OB24)) (domain or fragment)”, the stoichiometry N in series [7], in series [8] and in series [9] was 2 throughout.
“Cdc13_(OB234), purified, large tag removed (domain or fragment)” showed a stoichiometry N in series [10] of 2.
In series [11], OB1 ΔC-ter A40W (domain or fragment) showed a relative abundance of species 1 of 97.9% and a relative abundance of species 2 of 2.1%.
In [12], “OB1 ΔC-ter A40W D94A (domain or fragment)” had a relative abundance of species 1 of 97% and a relative abundance of species 2 of 3%.
Regarding OB1 ΔC-ter Q39A (domain or fragment), in series [13], the relative abundance of species 1 is 95.8%, the relative abundance of species 2 worked out at 3.1% and the relative abundance of species 3 was 1.1%.
With “OB1 ΔC-ter Q39A A40W (domain or fragment)”, in series [14], the relative abundance of species 1 was determined as 97.8% and the relative abundance of species 2 was determined as 2.2%.
On to TTTTTTTTTTTTTTTTTTTTTTTTTTTTTTTTTTTTTTTTTTTTTTTT (ssDNA) [polyT], for which, in the series with OB3, the binding result was “no binding”.
On to TGTGGGGTCTGGGTGCTGTGGGGTCTGGGTGCTGTGGGGTCTGGGTGC (ssDNA) [6FAM-CgTelo], for which the Kd with Cdc13OB34 turned out to be 299 ± 41 nM; in the series with Cdc13OB23, 28.5 ± 3.8 nM; with Cdc13OB234, 13.5 ± 1.7 nM.

The values above are taken from article PMC9881146.
